Source: US20190106487A1 (Sanofi, published 2019)

T1: rhIL-1RAcP/Fc Chimera (human, UniProt Q9NPH3 21-359)
T1 construct: also called P013_03; P013-03
T1 sequence (looked up): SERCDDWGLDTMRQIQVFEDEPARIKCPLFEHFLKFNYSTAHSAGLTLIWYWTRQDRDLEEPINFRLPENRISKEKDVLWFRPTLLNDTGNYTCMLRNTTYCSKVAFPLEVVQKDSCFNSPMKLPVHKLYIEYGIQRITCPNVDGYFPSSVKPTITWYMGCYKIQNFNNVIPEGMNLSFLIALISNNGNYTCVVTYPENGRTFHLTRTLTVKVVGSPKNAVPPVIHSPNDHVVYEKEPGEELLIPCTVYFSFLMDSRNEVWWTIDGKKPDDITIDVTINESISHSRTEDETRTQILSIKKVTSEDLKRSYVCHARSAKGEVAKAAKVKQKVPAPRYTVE

T2: human IL-1RAcP on 293T/17-FR cells (human, UniProt Q9NPH3 21-570)
T2 sequence (looked up): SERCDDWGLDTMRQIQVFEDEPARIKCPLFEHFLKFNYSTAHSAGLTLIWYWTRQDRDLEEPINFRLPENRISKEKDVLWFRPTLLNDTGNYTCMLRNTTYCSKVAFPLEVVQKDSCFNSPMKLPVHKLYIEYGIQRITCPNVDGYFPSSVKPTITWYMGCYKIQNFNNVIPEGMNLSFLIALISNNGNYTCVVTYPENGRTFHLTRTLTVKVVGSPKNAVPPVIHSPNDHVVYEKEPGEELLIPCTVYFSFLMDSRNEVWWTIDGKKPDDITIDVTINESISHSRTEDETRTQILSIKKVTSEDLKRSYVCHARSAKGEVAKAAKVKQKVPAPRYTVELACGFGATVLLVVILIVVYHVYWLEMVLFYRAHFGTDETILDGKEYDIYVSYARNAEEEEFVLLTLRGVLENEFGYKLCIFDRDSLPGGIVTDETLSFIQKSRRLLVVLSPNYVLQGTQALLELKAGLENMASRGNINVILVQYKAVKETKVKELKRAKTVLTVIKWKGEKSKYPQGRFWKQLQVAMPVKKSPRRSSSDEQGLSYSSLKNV

T3: mIL1RAcP-Fc (murine, UniProt Q61730 21-359)
T3 construct: also called P013_04; P013-04
T3 sequence (looked up): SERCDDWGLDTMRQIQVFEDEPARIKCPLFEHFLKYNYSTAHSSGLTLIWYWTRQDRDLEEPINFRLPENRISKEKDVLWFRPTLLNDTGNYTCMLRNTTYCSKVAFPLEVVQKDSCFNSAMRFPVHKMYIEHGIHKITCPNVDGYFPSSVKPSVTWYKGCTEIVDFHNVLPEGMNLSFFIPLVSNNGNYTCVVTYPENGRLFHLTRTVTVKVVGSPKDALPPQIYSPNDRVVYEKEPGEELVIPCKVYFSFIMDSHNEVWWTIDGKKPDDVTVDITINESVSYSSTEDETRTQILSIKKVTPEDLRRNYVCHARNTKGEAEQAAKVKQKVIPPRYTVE


What was measured:
rhIL-1RAcP/Fc Chimera [1] = target: T1, rhIL-1RAcP/Fc Chimera; experiment: ELISA, primary supernatant, coated hu-IL-1RAcP-Fc
Description: Microtiter plates were coated IL-1RACP and/or IL12Rβ1 protein (recombinant Fc chimeric conjugates of human IL-1RACP or IL12Rβ1). After a blocking process, specific antibodies from B-cell supernatants bind to the targets and are then detected by a POD-labeled anti-rabbit IgG antibody. The IL12Rβ1 binding was used as a counterscreen. IL-1RACP protein was tagged with a linker, huFc and His like the IL12Rβ1 protein. Antibodies which bind to the tag were positive in both assays, whereas antigen specific antibodies just bound to IL-1RACP and not to IL12Rβ1.
12.5 μL 0.5 μg/mL IL-1RACP protein in PBS was transferred to a microtiter plate, incubated and washed 3× with Wash Buffer. 90 μL Block Buffer was added to each well, incubated and washed. 12.5 μl Standard Antibody (rabbit mAb against IL-1RAcP, anti IL12Rbeta1 antibody: IL-12Rbeta1 antibody; GeneTex; Cat. No. GTX103917) or sample diluted in ELISA buffer was added, incubated and washed. 12.5 μl 1:5000 POD-Antibody (Anti-rabbit IgG, peroxidase-linked species-specific Fab2 fragment (from donkey) (ECL); assay dilution: 1:5000) in Elisa Buffer was added, incubated and washed. 15 μl TMB was added and 15 μl HCl was added after sufficient development. Absorbance (Optical Density O.D.) was read at 450 nm/620 nm.

[2] = target: T2, human IL-1RAcP on 293T/17-FR cells; experiment: cell-based or functional assay
rhIL-1RAcP/Fc Chimera [3] = target: T1, rhIL-1RAcP/Fc Chimera; experiment: ELISA, recombinant purified mAb
mIL1RAcP-Fc = target: T3, mIL1RAcP-Fc; experiment: ELISA, primary supernatant, coated mu-IL-1RAcP-Fc

Binder	hu-IL1RaP ELISA (OD) (rhIL-1RAcP/Fc Chimera [1])	functional reporter gene assay (% inhibition), 0.04 µg/mL mAb [2] [%]	functional reporter gene assay (% inhibition), 0.2 µg/mL mAb [2] [%]	functional reporter gene assay (% inhibition), 1 µg/mL mAb [2] [%]	functional reporter gene assay (% inhibition), 5 µg/mL mAb [2] [%]	primary supernatant functional assay (% inh.), NF-kB luciferase reporter [2] [%]	EC50 (rhIL-1RAcP/Fc Chimera [3]) [µg/mL]	mu-IL1RaP ELISA (OD) (mIL1RAcP-Fc)
P013.S.01.B.F04 (antibody, V domains shown, rabbit monoclonal antibody; also called P013.A.00133.A12) VH: LEQSGGGAEGGLVKPGGSLELCCKASGFSLSTSYWRCWVRQAPGKGLEWIGCIYAGSSDATYYANWVNGRFTLSRDIDQSTGCLQLNSLTAADTAMYYCASGVGFGYFNLWGQGTLVTVSS VL: ALVMTQTPSPVSAAVGGTVTINCQASEDIYSNLAWFQQKPGQPPKLLIYDASTLASGVPSRFSGSGSGTEFTLTISGLQSDDAATYYCLGVYTHISADNAFGGGTEVVVK	3.6	38	58	95	96	97	0.046	0.3
P013.S.01.B.A03 (antibody, V domains shown, rabbit monoclonal antibody; also called P013.A.00088.A07) VH: QEQLEESGGDLVQPEGSLTVTCTASGFSFSFGYYMCWVRQAPGKGLEWIACIYGDSSDTLYANWAKGRFTVSKTSSTTVTLQMTSLTAADTATYFCARYPGGSYYNLWGPGTRVTVSS VL: ALVMTQTPASVEAAVGGTVTIKCQASQTISINLAWYQQKPGQRPKLLIYYASTLASGVPSRFSGSGSGTEFTLTISGVQSDDAATYYCQQGYTEDNIDNTFGGGTEVVVK	3.3	77	94	98	99	95	0.225	0
P013.S.01.B.A04 (antibody, V domains shown, rabbit monoclonal antibody; also called P013.A.00085.C03) VH: QEQLEESGGGLVKPGGTLTLTCKASGIDFSSYYYMCWVRQAPGKGLEWIACIFIGYGDVTWYASWAKGRFTISKASSTTVTLQMTSLTAADTATYFCARALGSSGYRVNLWGPGTLVTVSS VL: ALVMTQTPSSVSAAVGGTVTINCQASENIYSSLAWYQQKPGQPPKLLIYDASDLASGVPSRFKGSGSGKEFTLTISDLESDDAATYYCQQGYYSGGTDNDVFGGGTEVVVK	3.4	47	89	97	98	74	0.027	0
P013.S.02.B.D04 (antibody, V domains shown, rabbit monoclonal antibody; also called P013.A.00086.A06) VH: QSLEESGGDLVQPGGSLTLTCKASGFSFSASYWICWVRQAPGKGLEWIGCIYIGGGGRYYASWAKGRFTISKTSSTTVTLQMTSLTAADTATYFCARDPVTSGSDYVYDLWGPGTLVTVAS VL: AYDMTQTPASVEVAVGGTVTIKCQASESISTWLAWYQQKPGQPPNLLIYRASTLASGVPSRFYGSGYGTEFTLTISGVESADAATYYCQQGYTVNNIDNVFGGGTEVVVK	3.6	4	19	47	87	88	–	0
